Data: publication PMC8971491, “Conformational plasticity of the HIV-1 gp41 immunodominant region is recognized by multiple non-neutralizing antibodies” (Communications Biology, 2022)

T1: 15-mer peptide corresponding to residues 594-608 of HIV-1 gp160 (HIV-1 Consensus Subtype C Env Peptide Set) (HIV-1 consensus subtype C (stand-in: …, UniProt P04578, strain))
T1 construct: 15-mer of the HIV-1 consensus subtype C Env peptide set, corresponding to residues 594-608 of HIV-1 gp160; also called single peptide that corresponds to residues 594-608 of HIV-1 gp160; NIH HIV-1 gp41 peptide; source: bought: NIH AIDS Reagent Program, HIV-1 Consensus Subtype C Env Peptide Set (cat. No. 9499)
T1 chain: GIWGCSGKLICTTAV

B1: Fab 3D6 (Fab, V domains shown)
VH: EVQLVESGGGLVQPGRSLRLSCAASGFTFNDYAMHWVRQAPGKGLEWVSGISWDSSSIGYADSVKGRFTISRDNAKNSLYLQMNSLRAEDMALYYCVKGRDYYDSGGYFTVAFDIWGQGTMVTVSS
VL: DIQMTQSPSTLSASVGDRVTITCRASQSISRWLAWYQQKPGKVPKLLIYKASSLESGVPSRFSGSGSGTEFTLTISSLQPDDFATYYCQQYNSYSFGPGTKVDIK
notes: immunoglobulin heavy chain variable region of 3D6; Ig gamma-1 chain constant region, fused after the variable region; as a Fab only part of the constant region is present; immunoglobulin light chain variable region of 3D6; Ig kappa chain constant region, fused after the variable region; Fab; residues numbered by Kabat convention; also called patient-derived near-germline antibody fragment; …
B2: Fab F240 (Fab, V domains shown)
VH: QVQLVQSGGGVVKPGASLRLACSASGFTFTDYYMSWIRQTPGKGLQWLAYITKDGSEKKYADSLQGRFAVSRDNANNLVFLQLNTVEDDDTGVYYCARDDGYYDRSGYYGVFDLWGQGIRVTVSS
VL: EFLLTQSPDSLAVTLGETATITCRSSRNILHSLNNKNYLAWYQQRPGQAPKLLVIWASMRVSGVADRFSGSGSGTDFALTISSLQPEDAAVYYCQHYYTTHRTFGQGTRVEIR
notes: immunoglobulin heavy chain variable region of F240; Ig gamma-1 chain constant region, fused after the variable region; as a Fab only part of the constant region is present; immunoglobulin light chain variable region of F240; Ig kappa chain constant region, fused after the variable region; Fab; residues numbered by Kabat convention; also called anti-gp41 Fab F240; source: HEK293T, transiently …

Target: T1, 15-mer peptide corresponding to …
Test: ELISA; 15-mer peptides adsorbed to microtiter plates at 10 ug/mL in 100 mM sodium bicarbonate pH 9.3 overnight at 4 C; Fab at 1 ug/mL in PBST-Milk, 1 hour at room temperature; goat anti-human HRP, absorbance at 450 nm
Settings: both partners purified

| Binder | binding result |
| --- | --- |
| B1 | binds |
| B2 | binds |
